# From the supplement of paper PMC9170038
# Tested on: K4 kissing-loop RNA reporter
# Assay: apparent KD of K4 kissing-loop reporter; higher = weaker reporter binding
# Settings: Eterna round: R107
# Protocol: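 RNA-MaP round R107: designed RNA switches with theophylline, tryptophan, arginine or FMN aptamers are transcribed on-chip within common flanks. They are titrated with a labelled K4 kissing-loop RNA reporter in RNA-MaP buffer (100 mM Tris pH 7.5, 80 mM KCl, 4 mM MgCl2), without ligand or with the indicated ligand. Median apparent KD per design.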
# [1] = input ligand: theophylline 20 uM
# [2] = input ligand: tryptophan 2.4 mM
# 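Also: bound reporter read as fluorescence of individual clusters on recovered sequencing chips by microscopy, with normalized cluster intensities fitted with a binding model.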
Sequence,apparent KD of K4 kissing-loop reporter (input ligand: FMN 200 uM) [nM],apparent KD of K4 kissing-loop reporter (input ligand: arginine 13.2 mM) [nM],apparent KD of K4 kissing-loop reporter (input ligand: none) [nM],apparent KD of K4 kissing-loop reporter [1] [nM],apparent KD of K4 kissing-loop reporter [2] [nM]
CGUUUAUAGCAGGAUACCAGUACCCAUAAAGUACGUUAAUAGUAGAGUGAUGUUCUAAAGUACCCUUGGCAGCUUCGAGUGAGUG [ExTheophylB.R],72.5,114,85.1,103,54
CUAGGUAACACAGGAUAUGUCCGAGUGAUGUUCGAGCCUUUCCAUUGACGAAAUUAAUGGUGGGUGACAGAAGGGUGAGUACUGA [Uses],457,640,1090,640,828
CUAUCGGUGCCAGUGAUGUUGGUACCGCCACGAGGACCGGUACGGCCGCCACUCGCAUUAGAUGAUCACACAGUGUAUACUGCUA [Aleusorza],139,128,135,159,122
CUCAAACCGUGGGCAUUUCGCAAAGUAGAUACCAGUCGCAACGGUGACCCUUGGCAGCUAGUAAAGUGAUGUUUUAUCGGCACCA [theeternabot_exclusion_KL_Theo_A_35],78.4,80.4,78,78.6,69.1
CUCACGCUCACAGAUACCAGUGGUGAUCCGGAUUGUAGUGAUGUUAAUUCCGCCAUCAUACACCCUUGGCAGCUGGCGUCACCUU [theeternabot_sameState_KL_Theo_B_31],799,417,654,871,715
CUCGAGUGAUGUUCGACGCGUCCGUACGAUACCAGCGUAGACCGUCGCCCUUGGCAGCGUGAUGCAGCCCGAAAGUCCGGUUCCU [theeternabot_sameState_KL_Theo_A_26],1160,833,1430,1120,1070
CUCGUGGGUUUGAGAGGGCUUGUGGGAAGUGAGGAUAUUUAGGGAGAAAGAAGGCACUAUAGAAUAUAGUGAUGUUAUAUAUGGG [SSFMNA.Q],313,109,264,69.3,256
CUGCAACAUAACUUCUUCGUCCUAGAAGACUAGGAUAUCAGGAAACUGAGAAGGAGUCUCUGCAGUGAUGUUGCAGUUAGGACGA [KL-SSFMN-A7],139,135,115,160,138
CUGUACAUCUCGGCCGCCACUGACCUAAGUGAUGUUAGGAAUGAAACCUAGUGAUGUUAGCAAACCAGGACCGGGAGGUGUGCAG [KL-SSTryp-B4 #Double Kiss],110,33.4,83.2,40.2,51.8
CUUAAGGAGUGUCGUGCCGGACACUGGGAAGGAGCGCAAUUCUUUGCAGGUAGGUCGCCCAGUGAUGUUGGGUCUCGCUGUCGAA [KL-XArg-A20],139,253,204,376,285
CUUAUGGACUAAGGAUAUGGGUAUACCGGAAGCGCCGUCACGGUAGUGAUGUUACACGCGACGGGACCAGAAGGUAGAUCGCUCC [theeternabot_exclusion_KL_FMN_B_33],73.9,96.2,101,71.3,85.5
CUUAUGGAGUGUCGUACCGGACACUGGGAAGGAGCGCAAUUCUUUGCAGGUAGGUCGCCCAGUGAUGUUGGGUGGCGCUGUCGAA [Xebeor],191,173,181,266,169
CUUGGAAGGACGGCCGCCACUCGACAGUGAUGUUGUCCGAGUUGGUAACGCAGUGAUGUUGUGUCGAGGACCGGGUCCUAGGAAU [Exclusion Tryptophan B GF 26],199,149,185,174,147
GAAAGAAAGUAUGAUACCAGACACCCGAGUGAUGUUCGGAGCAGUGUGUUGUUCUUUUAAGUCCCUUGGCAGCAUAAAAGAAAAG [whbob_SS_Theo_B_sa85],116,107,127,114,87.1
GAACGAGUGAUGUUCGUUAUUAUGCAUUCCGAGGAUAUGGGAUUAGCCAGAAGGCGGAAUCAAUCUUCGAGUGAUGUUCGAAGAU [Same State FMN A GF 11],129,138,142,119,136
GACAUAUUCCAGGAUACCAGUGAUCCGCCGCAGCCGAAGACUAGUGAUGUUAGUUUCUGUCACCCUUGGCAGCCUCGAGUCUAAU [theeternabot_sameState_KL_Theo_B_15],420,487,498,572,434
GACCGGCCGACGAGUGAUGUUCGAUGGGAAGGAGCGCGAAGAAAUGCAGGUAGGUCGCCCUAAGUAAUUGAAACGGCCGGAUUAU [2.)],137,143,128,212,102
GAGAGCCCUGUAGGAUAUGAGUCUAGUGAUGUUAGGCGGUCCAUGCGCGUGGCGCGUUAUGCCCUUUUAGAAGGACAGGGCUCUC [#2 Exclusion - FMN B Attempt #20 (HarryS)],105,67.2,80.9,80.1,80
GAGAUAGAGGCGGCCGCCACUAGUGAUGUUAGUGAUGUUAGAUAGAGAAUAGAACAGAGAUAGGAUAGGACCGGGCCAGAUAGAG [Tryptophan B Exclusion; Euphoria Solution],69.4,60.8,57.4,52.1,68.6
GAGCCAGAGGUUGCUGCGGGUUCCAGAGAUACCAGCCGUAUUGAAGGCCCUUGGCAGCUCGAGUGAUGUUCGAGCCGCCUCUGAC [Isquleorve],119,104,97.2,108,110
GAUACCACGUUAGAUACCAGCUUCGUUGACUUGGGUAGUAGUCGAACUUCAGUGAUGUUGAGCCCUUGGCAGCUACAGAUGUGCG [theeternabot_exclusion_KL_Theo_B_38],657,311,654,588,624
